From patent publication US20100143379A1 (priority 2005, published 2010) come the findings set out here.

One experiment relates to primary macrophages. Kind of experiment: In vitro apoptosis, primary macrophages. Format: cell-based, mouse. The following applies: MIF 100 ng/ml; dependent on CD74 and CD44. The source says:
Mice and Primary Cells. Wild-type (BALB/c or C57/B16), CD74-KO, (Shachar et al. (1996). Science 274:106-108), CD44-KO (Teder et al, (2002). Science 296:155-158), and MIF-KO (Bozza et al. (1999). J Exp Med 189:341-346), mice were bred at the Yale Animal Resource Center under strict, pathogen-free conditions. The KO strains were in genetically pure BALB/c or C57/B16 backgrounds (each at generation ≧N10). Mouse embryonic fibroblasts (MEFs) were obtained from 2 week-old embryos as described (Fingerle-Rowson et al. (2003). Proc Natl Acad Sci USA 100:9354-9359). […]
Apoptosis Studies. […] Cell lysates were collected, and caspase-3 activity analyzed using a colorimetric assay kit (R&D Systems). Cytoplasmic p53 content was analyzed as described previously (Mitchell et al. (2002). Proc Natl Acad Sci USA 99:345-350) by immunoblotting of mouse cytosolic fractions using a pair of anti-phospho-p53 (Ser15) (R&D Systems) and total anti-p53 antibodies (Cell Signaling); and for COS-7 cells, the anti-p53 (Ser15) and total anti-p53 antibodies (Cell Signaling). […] Mice were sacrificed 24 hrs after priming and the peritoneal macrophage cells collected and immediately analyzed for apoptosis by an ELISA that detects cytoplasmic oligonucleosomes (Roche Diagnostics). Primary macrophages also were immunostained by Alexa 488-conjugated, Annexin V (Invitrogen), and apoptotic cells enumerated by fluorescence microscopy.

In another experiment the test system is p53. Nature of the experiment: Ser15-phosphorylated p53 content, macrophages. The following applies: during apoptosis induction. Format: cell-based, mouse. Here is the method:
Apoptosis Studies. […] Cell lysates were collected, and caspase-3 activity analyzed using a colorimetric assay kit (R&D Systems). Cytoplasmic p53 content was analyzed as described previously (Mitchell et al. (2002). Proc Natl Acad Sci USA 99:345-350) by immunoblotting of mouse cytosolic fractions using a pair of anti-phospho-p53 (Ser15) (R&D Systems) and total anti-p53 antibodies (Cell Signaling); and for COS-7 cells, the anti-p53 (Ser15) and total anti-p53 antibodies (Cell Signaling). In vivo apoptosis studies followed the procedures of (Mitchell et al. (2002). Proc Natl Acad Sci USA 99:345-350), and were conducted after i.p injection of 15 mg/kg lipopolysaccharide (E. coli 0111:B4; Sigma). Mice were sacrificed 24 hrs after priming and the peritoneal macrophage cells collected and immediately analyzed for apoptosis by an ELISA that detects cytoplasmic oligonucleosomes (Roche Diagnostics). Primary macrophages also were immunostained by Alexa 488-conjugated, Annexin V (Invitrogen), and apoptotic cells enumerated by fluorescence microscopy.

B1: MIF: macrophage migration inhibitory factor; recombinant mouse or human MIF purified essentially free of endotoxin (protein)
chain: PMFIVNTNVPRASVPDGFLSELTQQLAQATGKPPQYIAVHVVPDQLMAFGGSSEPCALCSLHSIGKIGGAQNRSYSKLLCGLLAERLRISPDRVYINYYDMNAANVGWNNSTFA
In the case of B1, in the experiment on primary macrophages, the protection from apoptosis result is “almost complete”. Further, the “cellular content of Ser15-phosphorylated p53” value in the experiment on p53 is on record as “diminution in the cellular content”.
